Source: patent publication US20200262877A1, “ION CHANNEL-BINDING PEPTIDES AND METHODS OF USE THEREOF” (priority 2017, published 2020)

Experiments:
[1] = target: T1, 5HT3a (Homo sapiens, UniProt P46098); test: Ion channel panel (IonWorks Barracuda): 5HT3a; type: cell-based
T1 construct: host or cells: HEK293 or CHO
T1 sequence (P46098 whole entry, looked up): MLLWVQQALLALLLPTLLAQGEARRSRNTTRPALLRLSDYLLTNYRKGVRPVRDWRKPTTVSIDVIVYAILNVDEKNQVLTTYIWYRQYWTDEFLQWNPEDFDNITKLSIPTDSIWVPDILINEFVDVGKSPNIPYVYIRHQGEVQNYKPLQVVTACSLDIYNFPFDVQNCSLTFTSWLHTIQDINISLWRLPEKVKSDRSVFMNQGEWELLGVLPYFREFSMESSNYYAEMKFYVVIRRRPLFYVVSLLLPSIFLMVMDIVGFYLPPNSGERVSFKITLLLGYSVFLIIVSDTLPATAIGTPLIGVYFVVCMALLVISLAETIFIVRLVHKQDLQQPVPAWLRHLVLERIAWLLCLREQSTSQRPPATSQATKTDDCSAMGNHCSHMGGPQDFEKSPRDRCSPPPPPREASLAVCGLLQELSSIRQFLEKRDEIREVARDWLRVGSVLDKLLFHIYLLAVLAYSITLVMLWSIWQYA
Outline: (§1)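 Transfected HEK293 or CHO cells were exposed for at least 5 min to peptides at 200 nM and 20 μM final, tested in duplicate, in HEPES-buffered physiological saline. Activation was taken as peptide-plus-agonist current over control current ×100, and inhibition as 1 minus that ratio ×100. Each channel's control was its own reference compound.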

[2] = target: T2, α3β4 (Homo sapiens, UniProt P30926+P32297); test: Ion channel panel (IonWorks Barracuda): α3β4; type: cell-based; conditions: 100% = no change, <100% = inhibition
T2 construct: host or cells: HEK293 or CHO
Outline: as §1

[3] = target: T3, α4β2 (Homo sapiens, UniProt P17787+P43681); test: Ion channel panel (IonWorks Barracuda): α4β2; type: cell-based; conditions: 100% = no change, <100% = inhibition
T3 construct: host or cells: HEK293 or CHO
Outline: as §1

[4] = target: T4, Cav2.1 (Homo sapiens, UniProt O00555); test: cell-based; conditions: 100% = no change, <100% = inhibition
T4 construct: host or cells: HEK293 or CHO
Outline: as §1

[5] = target: T5, Cav2.2 (Homo sapiens, UniProt Q00975); test: cell-based; conditions: 100% = no change, <100% = inhibition
T5 construct: host or cells: HEK293 or CHO
Outline: as §1

[6] = target: T6, Kv2.1 (Homo sapiens, UniProt Q14721); test: cell-based; conditions: 100% = no change, <100% = inhibition
T6 construct: host or cells: HEK293 or CHO
Outline: as §1

[7] = system: GABA; test: Ion channel panel (IonWorks Barracuda): GABA; type: cell-based; conditions: 100% = no change, <100% = inhibition
Outline: as §1

[8] = target: Nav1.5 (Homo sapiens, UniProt Q14524); test: in vitro; conditions: 100% = no change; for Activity of Nav1.5 with peptide, expressed as a percentage of the reference compound: peptide at 0.2 μM; for Activity of Nav1.5 with peptide (percentage of the reference compound): peptide at 20 μM
Outline: as §1

[9] = target: hERG (Homo sapiens, UniProt Q12809); test: in vitro; conditions: 100% = no change, <100% = inhibition
Outline: as §1

[10] = target: T7, Kir2.1 (Homo sapiens, UniProt P63252); test: Ion channel panel (IonWorks Barracuda): Kir2.1; type: cell-based; conditions: 100% = no change, <100% = inhibition
T7 construct: host or cells: HEK293 or CHO
Outline: as §1

[11] = target: T8, Kv1.1 (Homo sapiens, UniProt Q09470); test: cell-based; type: cell-based; conditions: 100% = no change, <100% = inhibition
T8 construct: host or cells: HEK293 or CHO
Outline: as §1

[12] = target: T9, Kv1.2 (Homo sapiens, UniProt P16389); test: cell-based; type: cell-based; conditions: 100% = no change, <100% = inhibition
T9 construct: host or cells: HEK293 or CHO
Outline: as §1

[13] = target: T10, Kv1.3 (Homo sapiens, UniProt P22001); test: cell-based; type: cell-based; conditions: 100% = no change, <100% = inhibition
T10 construct: host or cells: HEK293 or CHO
Outline: as §1

[14] = target: T11, Nav1.7 (Homo sapiens, UniProt Q15858); test: cell-based; type: cell-based; conditions: 100% = no change; for Activity of Nav1.7 with peptide, expressed as a percentage of the reference compound: peptide at 0.2 μM; for Activity of Nav1.7 with peptide (percentage of the reference compound): peptide at 20 μM
T11 construct: host or cells: HEK293 or CHO

[15] = target: T12, NR2A (Homo sapiens, UniProt Q12879); test: Ion channel panel (IonWorks Barracuda): NR2A; type: cell-based; conditions: 100% = no change, <100% = inhibition
T12 construct: host or cells: HEK293 or CHO
Outline: as §1

[16] = target: T13, NR2B (Homo sapiens, UniProt Q13224); test: Ion channel panel (IonWorks Barracuda): NR2B; type: cell-based; conditions: 100% = no change, <100% = inhibition
T13 construct: host or cells: HEK293 or CHO
Outline: as §1

[17] = target: T14, TRPA1 (Homo sapiens, UniProt O75762); test: Ion channel panel (IonWorks Barracuda): TRPA1; type: cell-based; conditions: 100% = no change, <100% = inhibition
T14 construct: host or cells: HEK293 or CHO
Outline: as §1

[18] = target: T15, TRPV1 (Homo sapiens, UniProt Q8NER1); test: Ion channel panel (IonWorks Barracuda): TRPV1; type: cell-based; conditions: 100% = no change, <100% = inhibition
T15 construct: host or cells: HEK293 or CHO
Outline: as §1

[19] = first of two Nav1.5 columns (probably TP1)
[20] = second of two Nav1.5 columns (probably TP2)
[21] = first of two Nav1.7 columns (probably TP1)
[22] = second of two Nav1.7 columns (probably TP2)

Sequence of Nav1.5 (Q14524 whole entry): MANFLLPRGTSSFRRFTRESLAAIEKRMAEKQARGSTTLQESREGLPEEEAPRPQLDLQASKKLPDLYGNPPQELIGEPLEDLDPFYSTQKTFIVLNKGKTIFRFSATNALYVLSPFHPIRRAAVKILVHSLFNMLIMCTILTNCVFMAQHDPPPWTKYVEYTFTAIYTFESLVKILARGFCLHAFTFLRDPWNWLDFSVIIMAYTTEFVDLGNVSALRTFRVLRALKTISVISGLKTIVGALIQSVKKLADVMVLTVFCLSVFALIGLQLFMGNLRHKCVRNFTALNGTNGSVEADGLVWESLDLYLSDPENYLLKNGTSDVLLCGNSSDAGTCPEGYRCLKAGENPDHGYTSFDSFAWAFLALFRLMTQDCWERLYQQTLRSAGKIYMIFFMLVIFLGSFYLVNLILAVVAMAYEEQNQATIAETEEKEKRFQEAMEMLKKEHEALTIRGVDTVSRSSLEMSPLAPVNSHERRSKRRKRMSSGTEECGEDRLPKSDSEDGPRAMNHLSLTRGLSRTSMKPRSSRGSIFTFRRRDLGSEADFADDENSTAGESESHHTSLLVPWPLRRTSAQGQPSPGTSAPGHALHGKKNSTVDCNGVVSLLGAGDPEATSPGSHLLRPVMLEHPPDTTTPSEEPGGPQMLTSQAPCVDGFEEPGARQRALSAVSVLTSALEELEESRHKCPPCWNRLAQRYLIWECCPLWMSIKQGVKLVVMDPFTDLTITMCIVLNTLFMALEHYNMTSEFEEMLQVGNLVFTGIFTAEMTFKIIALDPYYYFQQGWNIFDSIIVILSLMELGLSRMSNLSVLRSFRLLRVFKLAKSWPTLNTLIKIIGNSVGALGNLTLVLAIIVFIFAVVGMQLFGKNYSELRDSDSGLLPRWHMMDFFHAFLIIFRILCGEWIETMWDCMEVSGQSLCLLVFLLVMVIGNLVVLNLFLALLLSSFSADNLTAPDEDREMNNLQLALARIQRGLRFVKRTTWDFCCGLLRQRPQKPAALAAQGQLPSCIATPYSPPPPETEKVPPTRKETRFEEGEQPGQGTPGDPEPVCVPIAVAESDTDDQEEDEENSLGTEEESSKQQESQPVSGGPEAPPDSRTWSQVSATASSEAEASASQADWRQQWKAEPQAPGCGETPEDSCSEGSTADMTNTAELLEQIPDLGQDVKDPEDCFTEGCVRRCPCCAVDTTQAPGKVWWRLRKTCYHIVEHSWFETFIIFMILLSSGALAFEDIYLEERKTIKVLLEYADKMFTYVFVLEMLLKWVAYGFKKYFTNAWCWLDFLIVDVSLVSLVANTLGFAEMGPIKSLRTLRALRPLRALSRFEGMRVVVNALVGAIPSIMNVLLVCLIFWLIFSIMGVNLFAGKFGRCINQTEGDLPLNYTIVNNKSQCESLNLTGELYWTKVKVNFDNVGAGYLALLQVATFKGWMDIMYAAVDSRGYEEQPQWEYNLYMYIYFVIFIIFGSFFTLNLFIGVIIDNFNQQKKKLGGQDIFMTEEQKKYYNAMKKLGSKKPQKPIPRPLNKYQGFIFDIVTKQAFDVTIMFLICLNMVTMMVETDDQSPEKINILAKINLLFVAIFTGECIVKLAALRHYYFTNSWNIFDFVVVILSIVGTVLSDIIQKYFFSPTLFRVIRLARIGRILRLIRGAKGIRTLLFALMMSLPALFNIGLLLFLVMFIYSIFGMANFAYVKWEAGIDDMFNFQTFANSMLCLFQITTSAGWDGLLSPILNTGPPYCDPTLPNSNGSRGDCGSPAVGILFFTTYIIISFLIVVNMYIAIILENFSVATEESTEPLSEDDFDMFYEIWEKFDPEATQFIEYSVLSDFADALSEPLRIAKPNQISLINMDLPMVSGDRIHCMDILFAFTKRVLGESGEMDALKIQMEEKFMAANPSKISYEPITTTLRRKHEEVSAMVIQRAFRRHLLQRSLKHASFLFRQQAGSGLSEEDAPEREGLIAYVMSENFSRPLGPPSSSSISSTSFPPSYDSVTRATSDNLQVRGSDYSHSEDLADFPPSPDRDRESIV
T11 sequence (Q15858 whole entry): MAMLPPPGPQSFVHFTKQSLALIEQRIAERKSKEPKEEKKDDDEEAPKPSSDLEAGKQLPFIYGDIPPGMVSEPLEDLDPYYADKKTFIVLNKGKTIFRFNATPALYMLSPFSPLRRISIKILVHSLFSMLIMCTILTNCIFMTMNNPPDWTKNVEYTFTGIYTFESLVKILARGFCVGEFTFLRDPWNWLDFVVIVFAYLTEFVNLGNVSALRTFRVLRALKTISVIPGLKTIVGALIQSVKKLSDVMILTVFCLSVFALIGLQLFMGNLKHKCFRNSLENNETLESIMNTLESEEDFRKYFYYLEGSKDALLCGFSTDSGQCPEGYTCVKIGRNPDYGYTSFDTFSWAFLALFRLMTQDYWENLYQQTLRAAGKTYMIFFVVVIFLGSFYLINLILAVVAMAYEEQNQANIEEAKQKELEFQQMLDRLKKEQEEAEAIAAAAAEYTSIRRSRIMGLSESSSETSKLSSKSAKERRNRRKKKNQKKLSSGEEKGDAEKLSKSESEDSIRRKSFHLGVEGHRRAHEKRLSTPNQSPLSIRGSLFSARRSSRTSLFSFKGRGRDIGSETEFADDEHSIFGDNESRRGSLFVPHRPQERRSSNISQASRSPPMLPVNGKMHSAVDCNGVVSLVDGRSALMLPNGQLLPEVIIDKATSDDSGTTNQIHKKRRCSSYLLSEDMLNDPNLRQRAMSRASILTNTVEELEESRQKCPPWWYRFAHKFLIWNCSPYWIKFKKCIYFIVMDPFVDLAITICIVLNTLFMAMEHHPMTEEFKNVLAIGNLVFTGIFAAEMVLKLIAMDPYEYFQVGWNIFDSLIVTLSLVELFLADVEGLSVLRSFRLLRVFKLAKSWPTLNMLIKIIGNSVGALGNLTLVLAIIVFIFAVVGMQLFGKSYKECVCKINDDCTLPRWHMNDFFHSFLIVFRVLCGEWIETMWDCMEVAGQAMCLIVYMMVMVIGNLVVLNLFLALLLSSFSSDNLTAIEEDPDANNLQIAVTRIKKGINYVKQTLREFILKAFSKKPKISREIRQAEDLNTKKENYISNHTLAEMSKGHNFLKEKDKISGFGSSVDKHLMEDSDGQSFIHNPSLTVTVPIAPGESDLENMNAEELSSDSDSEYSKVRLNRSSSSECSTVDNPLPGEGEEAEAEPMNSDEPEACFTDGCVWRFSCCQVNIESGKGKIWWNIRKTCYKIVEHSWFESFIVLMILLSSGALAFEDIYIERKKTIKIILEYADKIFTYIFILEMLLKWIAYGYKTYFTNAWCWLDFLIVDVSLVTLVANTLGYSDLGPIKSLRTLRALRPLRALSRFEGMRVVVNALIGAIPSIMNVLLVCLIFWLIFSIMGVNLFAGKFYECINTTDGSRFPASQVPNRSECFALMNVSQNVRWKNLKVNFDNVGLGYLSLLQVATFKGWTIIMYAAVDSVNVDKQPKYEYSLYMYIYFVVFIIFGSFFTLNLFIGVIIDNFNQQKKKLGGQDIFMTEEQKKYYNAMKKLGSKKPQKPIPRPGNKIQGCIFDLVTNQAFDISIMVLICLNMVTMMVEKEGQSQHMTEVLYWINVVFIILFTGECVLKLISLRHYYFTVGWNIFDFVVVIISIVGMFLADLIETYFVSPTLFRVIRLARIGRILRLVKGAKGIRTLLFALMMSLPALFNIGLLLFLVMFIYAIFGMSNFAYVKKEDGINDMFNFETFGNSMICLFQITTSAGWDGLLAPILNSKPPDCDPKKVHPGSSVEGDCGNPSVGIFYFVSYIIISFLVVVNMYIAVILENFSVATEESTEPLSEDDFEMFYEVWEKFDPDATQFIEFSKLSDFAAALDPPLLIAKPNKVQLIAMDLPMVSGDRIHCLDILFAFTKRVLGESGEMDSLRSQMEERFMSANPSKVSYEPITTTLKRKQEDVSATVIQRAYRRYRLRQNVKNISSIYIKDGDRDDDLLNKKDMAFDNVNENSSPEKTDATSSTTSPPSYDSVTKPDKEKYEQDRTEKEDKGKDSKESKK
T3 sequence (P43681 29-627): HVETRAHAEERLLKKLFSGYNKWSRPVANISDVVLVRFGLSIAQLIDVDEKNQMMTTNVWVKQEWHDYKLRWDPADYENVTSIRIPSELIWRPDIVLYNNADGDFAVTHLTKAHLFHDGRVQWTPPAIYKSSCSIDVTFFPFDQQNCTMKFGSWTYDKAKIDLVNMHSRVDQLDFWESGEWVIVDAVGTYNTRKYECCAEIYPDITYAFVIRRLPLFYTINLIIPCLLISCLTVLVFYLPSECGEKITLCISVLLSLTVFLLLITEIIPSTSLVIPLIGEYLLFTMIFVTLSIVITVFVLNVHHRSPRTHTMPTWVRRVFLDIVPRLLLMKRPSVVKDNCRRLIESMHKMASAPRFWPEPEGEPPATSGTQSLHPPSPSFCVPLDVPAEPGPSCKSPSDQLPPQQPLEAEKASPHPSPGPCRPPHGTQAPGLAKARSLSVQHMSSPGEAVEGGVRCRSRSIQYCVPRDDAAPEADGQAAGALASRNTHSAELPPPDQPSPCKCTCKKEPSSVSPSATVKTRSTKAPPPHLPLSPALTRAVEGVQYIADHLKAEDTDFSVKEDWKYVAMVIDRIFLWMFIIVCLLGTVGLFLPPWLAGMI
T3 sequence (P17787 26-502): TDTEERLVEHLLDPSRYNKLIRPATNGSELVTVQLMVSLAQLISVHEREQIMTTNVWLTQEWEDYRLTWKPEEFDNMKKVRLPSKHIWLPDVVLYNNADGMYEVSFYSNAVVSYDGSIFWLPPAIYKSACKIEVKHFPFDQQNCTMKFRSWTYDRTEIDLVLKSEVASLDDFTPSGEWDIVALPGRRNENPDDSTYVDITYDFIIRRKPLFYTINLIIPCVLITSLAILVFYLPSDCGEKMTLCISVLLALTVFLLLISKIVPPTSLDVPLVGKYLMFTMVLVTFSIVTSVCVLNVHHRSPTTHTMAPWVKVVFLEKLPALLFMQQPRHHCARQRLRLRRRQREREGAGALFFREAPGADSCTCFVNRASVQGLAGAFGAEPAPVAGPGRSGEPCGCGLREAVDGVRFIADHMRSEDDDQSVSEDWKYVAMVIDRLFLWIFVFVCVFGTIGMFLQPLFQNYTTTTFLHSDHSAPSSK

Substance: 34 (GGYSRCQLQGFNCVVRSYGLPTIPCCRGLTCRSYFPGSTYGRCQRY) [compound 34]
- Activity of 5HT3a with peptide (percentage of the reference compound) [1]: 97%
- Activity of 5HT3a with peptide, expressed as a percentage of the reference compound [1]: 114%
- Activity of a3b4 with peptide, expressed as a percentage of the reference compound ([2]; peptide at 0.2 μM): 103%
- Activity of a3b4 with peptide (percentage of the reference compound) ([2]; peptide at 20 μM): 97%
- Activity of a4b2 with peptide, expressed as a percentage of the reference compound ([3]; peptide at 0.2 μM): 81%
- Activity of a4b2 with peptide (percentage of the reference compound) ([3]; peptide at 20 μM): 51%
- Activity of Cav2.1 with peptide, expressed as a percentage of the reference compound ([4]; peptide at 0.2 μM): 86%
- Activity of Cav2.1 with peptide (percentage of the reference compound) ([4]; peptide at 20 μM): 111%
- Activity of Cav2.2 with peptide, expressed as a percentage of the reference compound ([5]; peptide at 0.2 μM): 130%
- Activity of Cav2.2 with peptide (percentage of the reference compound) ([5]; peptide at 20 μM): 94%
- Activity of Kv2.1 with peptide, expressed as a percentage of the reference compound ([6]; peptide at 0.2 μM): 98%
- Activity of Kv2.1 with peptide (percentage of the reference compound) ([6]; peptide at 20 μM): 97%
- Activity of GABA with peptide, expressed as a percentage of the reference compound ([7]; peptide at 0.2 μM): 107%
- Activity of GABA with peptide (percentage of the reference compound) ([7]; peptide at 20 μM): 117%
- Activity of Nav1.5 with peptide, expressed as a percentage of the reference compound [8, 19]: 111%
- Activity of Nav1.5 with peptide, expressed as a percentage of the reference compound [8, 20]: 113%
- Activity of Nav1.5 with peptide (percentage of the reference compound) [8, 19]: 101%
- Activity of Nav1.5 with peptide (percentage of the reference compound) [8, 20]: 101%
- Activity of hERG with peptide, expressed as a percentage of the reference compound ([9]; peptide at 0.2 μM): 84%
- Activity of hERG with peptide (percentage of the reference compound) ([9]; peptide at 20 μM): 66%
- Activity of Kir2.1 with peptide, expressed as a percentage of the reference compound ([10]; peptide at 0.2 μM): 97%
- Activity of Kir2.1 with peptide (percentage of the reference compound) ([10]; peptide at 20 μM): 50%
- Activity of Kv1.1 with peptide, expressed as a percentage of the reference compound ([11]; peptide at 0.2 μM): 109%
- Activity of Kv1.1 with peptide (percentage of the reference compound) ([11]; peptide at 20 μM): 111%
- Activity of Kv1.2 with peptide, expressed as a percentage of the reference compound ([12]; peptide at 0.2 μM): 96%
- Activity of Kv1.2 with peptide (percentage of the reference compound) ([12]; peptide at 20 μM): 51%
- Activity of Kv1.3 with peptide, expressed as a percentage of the reference compound ([13]; peptide at 0.2 μM): 108%
- Activity of Kv1.3 with peptide (percentage of the reference compound) ([13]; peptide at 20 μM): 100%
- Activity of Nav1.7 with peptide, expressed as a percentage of the reference compound [14, 21]: 102%
- Activity of Nav1.7 with peptide, expressed as a percentage of the reference compound [14, 22]: 104%
- Activity of Nav1.7 with peptide (percentage of the reference compound) [14, 21]: 86%
- Activity of Nav1.7 with peptide (percentage of the reference compound) [14, 22]: 80%
- Activity of NR2A with peptide, expressed as a percentage of the reference compound ([15]; peptide at 0.2 μM): 112%
- Activity of NR2A with peptide (percentage of the reference compound) ([15]; peptide at 20 μM): 77%
- Activity of NR2B with peptide, expressed as a percentage of the reference compound ([16]; peptide at 0.2 μM): 127%
- Activity of NR2B with peptide (percentage of the reference compound) ([16]; peptide at 20 μM): 66%
- Activity of TRPA1 with peptide, expressed as a percentage of the reference compound ([17]; peptide at 0.2 μM): 91%
- Activity of TRPA1 with peptide (percentage of the reference compound) ([17]; peptide at 20 μM): 97%
- Activity of TRPV1 with peptide, expressed as a percentage of the reference compound ([18]; peptide at 0.2 μM): 110%
- Activity of TRPV1 with peptide (percentage of the reference compound) ([18]; peptide at 20 μM): 71%
